How the values were obtained:
Flag-p38α wild type [1] = molecular target: T1, Flag-p38α wild type (UniProt Q16539 1-360); assay: cell-based or functional assay
[2] = molecular target: Flag-p38α R49/149K mutant (UniProt Q16539 1-360, R49/149K | R49/149K); assay: cell-based or functional assay
Flag-p38α wild type [3] = molecular target: T1, Flag-p38α wild type; assay: co-IP; Flag-p38α immunoprecipitated with anti-Flag antibodies and protein G agarose at 4 °C from lysates (1 mg) of p38α-knockdown K562 cells after AraC (1 μM, 5 h); lysis buffer 150 mM NaCl, 20 mM Tris pH 7.4, 0.2% Triton X-100; partners detected by Western blot and quantified; in Figure 6D with or without HA-PRMT1; details: partners not purified

T1 sequence (Q16539 whole entry): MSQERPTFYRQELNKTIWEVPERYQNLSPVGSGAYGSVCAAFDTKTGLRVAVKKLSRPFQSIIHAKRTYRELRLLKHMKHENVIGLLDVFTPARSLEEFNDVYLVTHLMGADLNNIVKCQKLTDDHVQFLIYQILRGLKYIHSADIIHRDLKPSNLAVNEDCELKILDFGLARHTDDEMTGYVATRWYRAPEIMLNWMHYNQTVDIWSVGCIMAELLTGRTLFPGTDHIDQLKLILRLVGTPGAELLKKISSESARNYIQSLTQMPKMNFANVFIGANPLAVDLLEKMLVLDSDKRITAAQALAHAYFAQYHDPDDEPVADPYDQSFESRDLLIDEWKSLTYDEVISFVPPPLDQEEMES
Sequence of Flag-p38α R49/149K mutant (Q16539 other isoform, or with tags, fused parts or gaps R49/149K | R49/149K | R49/149K | R49/149K | mutant): as the sequence (Q16539 whole entry) above, with R49K, R149K counted along it

B1: MAPK kinase 3 (MKK3) (enzyme, human (endogenous in K562), UniProt P46734 1-347, looked up)
chain: MESPASSQPASMPQSKGKSKRKKDLRISCMSKPPAPNPTPPRNLDSRTFITIGDRNFEVEADDLVTISELGRGAYGVVEKVRHAQSGTIMAVKRIRATVNSQEQKRLLMDLDINMRTVDCFYTVTFYGALFREGDVWICMELMDTSLDKFYRKVLDKNMTIPEDILGEIAVSIVRALEHLHSKLSVIHRDVKPSNVLINKEGHVKMCDFGISGYLVDSVAKTMDAGCKPYMAPERINPELNQKGYNVKSDVWSLGITMIEMAILRFPYESWGTPFQQLKQVVEEPSPQLPADRFSPEFVDFTAQCLRKNPAERMSYLELMEHPFFTLHKTKKTDIAAFVKEILGEDS
notes: MKK3 (MAPK kinase 3), endogenous in human K562 cells, detected with anti-MKK3 (Cell Signaling #5674); source: endogenous, K562 lysate
sorbitol (150 mM)-induced activation phosphorylation of Flag-p38α at 0.5 h (Western blot with anti-phospho-p38) (Flag-p38α wild type [1]): ~4 fold
sorbitol (150 mM)-induced activation phosphorylation of Flag-p38α at 0.5 h (Western blot with anti-phospho-p38) [2]: ~2 fold
fold change of the interaction with HA-PRMT1 against without (Flag-p38α wild type [3]): 1.7 fold
